What was measured:
[1] = published reports; cited from earlier work
[2] = DMSO; cited from earlier work
hair germ = experiment: subcutaneous injection of WNT activator 2 recombinant protein in mice, hair germ activation and hair cycle; assay type: in vivo; settings: for hair germ activation: mice (FIG. 12); for telogen to anagen transition: mice (FIG. 13)
From the text: To further investigate the effect of WNT activator 2 in hair germ activation, mice received subcutaneous injection of WNT activator 2 recombinant protein.

## c1cc(-c2cnn3cc(-c4ccc(OCCN5CCCCC5)cc4)cnc23)ccn1 [Dorsomorphin]
[1]
  toxicity: low toxicity
[2]
  solubility: soluble in DMSO

B1: WNT activator 2 recombinant protein: recombinant Wnt7a protein (wingless-type MMTV integration site family, member 7A), called WNT activator 2 (protein, UniProt O00755 32-349, looked up)
Protein Wnt-7a: LGASIICNKIPGLAPRQRAICQSRPDAIIVIGEGSQMGLDECQFQFRNGRWNCSALGERTVFGKELKVGSREAAFTYAIIAAGVAHAITAACTQGNLSDCGCDKEKQGQYHRDEGWKWGGCSADIRYGIGFAKVFVDAREIKQNARTLMNLHNNEAGRKILEENMKLECKCHGVSGSCTTKTCWTTLPQFRELGYVLKDKYNEAVHVEPVRASRNKRPTFLKIKKPLSYRKPMDTDLVYIEKSPNYCEEDPVTGSVGTQGRACNKTAPQASGCDLMCCGRGYNTHQYARVWQCNCKFHWCCYVKCNTCSERTEMYTCK
Hair germ
  hair germ activation: induces precocious hair germ activation
  telogen to anagen transition: promotes precocious telogen to anagen transition
Hair germ; listed as WNT activator 2
  hair germ activation: induced precocious hair germ activation
  telogen to anagen transition: promoted precocious telogen to anagen transition

— US20150033371A1, “HAIR FOLLICLE STEM CELLS AND METHODS OF USE SAME” (University of Southern California, priority 2011, published 2015)
